Data taken from patent US20210220460.

Experiments:
[1] = system: ComP-His (pilin-like protein ComP of A. baylyi with C-6X His tag)
[2] = system: DsbA1-His of N. meningitidis expressed in A. baylyi (pBAV-dsbA1-His, C-6X His)
[3] = system: OmpA-His (A1S_1193) expressed in A. baylyi
[4] = system: PilA17978-His (pilin of A. baumannii ATCC 17978 with C-terminal hexa-histidine tag)
[5] = system: PilAM2, major type IVa pilin of A. nosocomialis strain M2
[6] = system: OmpA-His (A1S_1193 with C-terminal 5x His tag), expressed in strain M2 backgrounds

With “Pg1LADP1, general O-OTase of A. baylyi ADP1 (ACIAD0103)” the “ComP-His electrophoretic mobility, western blot” value [1] was “Pg1LADP1 is not required for ComP post-translational modification”, the “DsbA1-His electrophoretic mobility, western blot of A. baylyi lysates” value [2] was “displayed an increased electrophoretic mobility in the Δpg1LADP1 background relative to wild-type and Δpg1LComP backgrounds” and the “OmpA-His electrophoretic mobility, western blot of A. baylyi lysates” value [3] was “displayed an increased electrophoretic mobility in the Δpg1LADP1 background relative to wild-type and Δpg1LComP backgrounds”.

With “Pg1LComP, ComP-specific O-OTase of A. baylyi ADP1 (ACIAD3337)” the “ComP-His electrophoretic mobility, western blot” value [1] was “pg1LComP (ACIAD3337) is required for ComP modification”, the “glycosylation in E. coli CLM24, western blot with anti-his and anti-glycan antibodies” value [1] was “lower electrophoretic mobility bands that react to the anti-his and anti-glycan antibodies indicate glycosylation of ComP by the C. jejuni LLO” and the “glycosylation in E. coli CLM24 with the S. pneumoniae serotype 14 CPS locus, western blot” value [1] was “Lower electrophoretic mobility bands in panel A that react to both Anti-His and Anti-Glycan antibodies in lane 2 relative to lane 1”. For the same substance, the “heterologous ComP-His electrophoretic mobility, western blot” value [1] was “ComP-His was only modified in A. baylyi ADP1”, the “heterologous PilA17978 electrophoretic mobility, western blot” value [4] was “PilA17978 was not glycosylated by Pg1LComP” and the “heterologous PilAM2 electrophoretic mobility, western blot” value [5] was “Pg1LComP was unable to glycosylate the pilins recognized by TfpO”.

With “Pg1LM2, general O-OTase of A. nosocomialis strain M2 (ORF M215_10475)” the “OmpA-His electrophoretic mobility, western blot; ESI-TOF-MS/MS” value [6] was “OmpA-His from the M2Δpg1L::kan and the M2ΔweeH::kan backgrounds migrated at an increased electrophoretic mobility, consistent with the lack of a post-translational modification”.

For “TfpOM2, type four pilin specific O-oligosaccharyltransferase of A. nosocomialis strain M2 (ORF M215_10480)”, the “MS/MS analysis of PilA from surface shear preparations” value [5] was “PilA from the M2ΔtfpO::kanΔpilT::strep mutant was unmodified”.
